Assay results as given in article PMC7809796.

Molecular target: Cdc4 (UniProt P07834)
Assay: His-Far1
Conditions: reference: wild type Far1(85-150)

binding against the reference (sites S87) | binding against the reference (sites S91) | Substance
lost |  | Far1 85-150 (from UniProt P21268) S87 mutant (taken as S87A; not spelled out in text)
 | lost | Far1 85-150 (from UniProt P21268) S91 mutant (taken as S91A; not spelled out in text)
